These results are taken from PMC8346855.

What is called Kd is the equilibrium constant for the complex coming apart.

Assay [1] concerns the target thermostabilized turkey beta-1 adrenergic receptor (turkey) (UniProt P07700). The assay is described as follows: cross-linking; isoprenaline-bound β1AR with Gαi or β-arrestin-1 at equimolar concentration; BS(PEG)9, high-mass MALDI-MS; percent complex by normalisation with β-Gal.
Assay [2] has the same target. The assay is described as follows: cross-linking; apo β1AR with Gαi or β-arrestin-1 at equimolar concentration; BS(PEG)9, high-mass MALDI-MS; percent complex by normalisation with β-Gal.
Assay [3] has the same target. The assay can be described thus: cross-linking; carvedilol-bound β1AR with Gαi or β-arrestin-1 at equimolar concentration; BS(PEG)9, high-mass MALDI-MS; percent complex by normalisation with β-Gal.
For assay [4] the target is unchanged. The assay can be described thus: cross-linking; Kd by titrating the partner protein against isoprenaline-bound β1AR; 20 mM Hepes pH 7.5, 40 mM NaCl, 0.01% lauryl maltose neopentyl glycol; BS(PEG)9, high-mass MALDI-MS, normalised to β-galactosidase.
Assay [5] shares this target. The assay is described as follows: cross-linking; Kd by titrating the G protein against the apo GPCR; 20 mM Hepes pH 7.5, 40 mM NaCl, 0.01% lauryl maltose neopentyl glycol; BS(PEG)9, high-mass MALDI-MS, normalised to β-galactosidase.
Assay [6] addresses angiotensin II-bound mouse angiotensin II type 1 receptor F117W Δ324 (mouse | human). The assay can be described thus: cross-linking + other: high-mass MALDI-MS; angiotensin II-bound AT1R (angII-AT1R), 5 µM, mixed with partner protein at various concentrations, 1 h at room temperature, BS(PEG)9 cross-linking, 1.0 µM β-Gal as internal standard; 20 mM Hepes pH 7.5, 40 mM NaCl, 0.01% LMNG; Ka = 1/Kd.

Assay [7] deals with mouse angiotensin II type 1 receptor F117W Δ324 with a C-terminal 1D4 tag (mouse). The assay is described as follows: cross-linking + other: high-mass MALDI-MS; ligand-free (apo) GPCR, 5 µM, mixed with partner protein at various concentrations, 1 h at room temperature, BS(PEG)9 cross-linking, β-Gal as internal standard; 20 mM Hepes pH 7.5, 40 mM NaCl, 0.01% LMNG; Ka = 1/Kd.
In assay [8] the target is angiotensin II-bound F117W mutant of mouse angiotensin II type 1 receptor (mouse | not stated) (UniProt P29754). The assay is described as follows: cross-linking; Kd by titrating the G protein against ligand-bound AT1R; 20 mM Hepes pH 7.5, 40 mM NaCl, 0.01% lauryl maltose neopentyl glycol; BS(PEG)9, high-mass MALDI-MS, normalised to β-galactosidase.
In assay [9] the target is thermostabilized turkey beta-1 adrenergic receptor (turkey) (UniProt P07700). The assay is described as follows: cross-linking; β1AR and partner with 1 or 25 µM s32212 at increasing concentrations of isoprenaline; BS(PEG)9, high-mass MALDI-MS.
thermostabilized turkey beta-1 adrenergic receptor (turkey), sequence (P07700 whole entry): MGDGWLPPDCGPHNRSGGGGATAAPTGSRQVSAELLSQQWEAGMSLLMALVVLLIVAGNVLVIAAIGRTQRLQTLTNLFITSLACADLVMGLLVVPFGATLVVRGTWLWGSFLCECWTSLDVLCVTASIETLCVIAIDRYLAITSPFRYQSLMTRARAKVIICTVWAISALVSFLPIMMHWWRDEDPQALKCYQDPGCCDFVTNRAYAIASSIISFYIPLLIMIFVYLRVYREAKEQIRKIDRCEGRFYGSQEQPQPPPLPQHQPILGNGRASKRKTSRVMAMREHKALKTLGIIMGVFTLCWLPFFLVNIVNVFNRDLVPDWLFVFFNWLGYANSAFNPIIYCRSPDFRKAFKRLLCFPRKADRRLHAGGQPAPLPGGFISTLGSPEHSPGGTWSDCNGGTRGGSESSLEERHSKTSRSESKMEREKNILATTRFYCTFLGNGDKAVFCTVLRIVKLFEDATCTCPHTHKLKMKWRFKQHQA

full-length wild-type β-arrestin-1, sequence (P49407 whole entry): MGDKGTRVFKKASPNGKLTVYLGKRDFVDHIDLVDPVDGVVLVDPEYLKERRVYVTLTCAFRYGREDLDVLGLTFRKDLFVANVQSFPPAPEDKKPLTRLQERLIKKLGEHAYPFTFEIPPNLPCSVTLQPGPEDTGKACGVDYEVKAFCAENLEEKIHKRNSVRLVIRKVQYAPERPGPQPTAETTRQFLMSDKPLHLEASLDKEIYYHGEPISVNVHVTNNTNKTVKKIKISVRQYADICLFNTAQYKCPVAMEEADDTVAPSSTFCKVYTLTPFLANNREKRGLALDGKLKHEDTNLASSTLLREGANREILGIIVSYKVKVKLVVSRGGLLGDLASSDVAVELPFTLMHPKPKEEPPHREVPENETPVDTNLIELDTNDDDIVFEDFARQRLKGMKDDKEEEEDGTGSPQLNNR

For the substance “full-length wild-type Gαi (from UniProt P63096 1-354) (natural protein)”, the complex formation in [1] came out at 60%; in [2], 60%; in assay [3], 92%.

On to “full-length wild-type β-arrestin-1 (from UniProt P49407 1-418) (natural protein)”, for which the figures for the complex formation in [1], in [2] and in assay [3] were 32%, 32% and 88%, respectively.

Turning to “mGo truncated by its last five residues (domain or fragment)”, the results for the Kd in assay [4] and in assay [5] were 230 nM and 280 nM, respectively.

Regarding mini-Go (domain or fragment), the Ka is 1.02e+06 M⁻¹ in [6] and 270000 M⁻¹ in [7].

Take “mini-Gα protein mGi (domain or fragment)”: in assay [4], the Kd came out at 1620 nM.

For “mini-Gα protein mGo (domain or fragment)”, the Kd in assay [4] and in assay [5] was 250 nM in each case. Besides, the binding strength relative to mGq in assay [8] is 2 fold.

In assay [4], “mini-Gα protein mGq (domain or fragment)” yielded a Kd of 1240 nM.

In assay [4], “mini-Gα protein mGs (from UniProt P63092 87-394) (domain or fragment)” had a Kd of 350 nM. Moreover, in assay [9], the complex formation recovered by raising isoprenaline (with s32212) stood at 80%.
